{
  "source": "patent US20220154204A1",
  "about": "(University of California, published 2022)",
  "binders": {"B1": {"name": "cYFP-ABI1 (enzyme, UniProt P49597 1-434, looked up)", "chain": "MEEVSPAIAGPFRPFSETQMDFTGIRLGKGYCNNQYSNQDSENGDLMVSLPETSSCSVSGSHGSESRKVLISRINSPNLNMKESAAADIVVVDISAGDEINGSDITSEKKMISRTESRSLFEFKSVPLYGFTSICGRRPEMEDAVSTIPRFLQSSSGSMLDGRFDPQSAAHFFGVYDGHGGSQVANYCRERMHLALAEEIAKEKPMLCDGDTWLEKWKKALFNSFLRVDSEIESVAPETVGSTSVVAVVFPSHIFVANCGDSRAVLCRGKTALPLSVDHKPDREDEAARIEAAGGKVIQWNGARVFGVLAMSRSIGDRYLKPSIIPDPEVTAVKRVKEDDCLILASDGVWDVMTDEEACEMARKRILLWHKKNAVAGDASLLADERRKEGKDPAAMSAAEYLSKLAIQRGSKDNISVVVVDLKPRRKLKSKPLN", "notes": "BiFC positive control partner; order of tag and protein as the printed name gives it; not shown: C-terminal YFP fragment (cYFP) from BiFC vector pSPYCE(M)"}},
  "molecular_target": "T1, nYFP-GEF1 (UniProt Q93ZY2 1-548)",
  "T1 construct": "BiFC positive control partner; also called RopGEF1; not shown: N-terminal YFP fragment (nYFP) from BiFC vector pSPYNE173",
  "T1 sequence (looked up)": "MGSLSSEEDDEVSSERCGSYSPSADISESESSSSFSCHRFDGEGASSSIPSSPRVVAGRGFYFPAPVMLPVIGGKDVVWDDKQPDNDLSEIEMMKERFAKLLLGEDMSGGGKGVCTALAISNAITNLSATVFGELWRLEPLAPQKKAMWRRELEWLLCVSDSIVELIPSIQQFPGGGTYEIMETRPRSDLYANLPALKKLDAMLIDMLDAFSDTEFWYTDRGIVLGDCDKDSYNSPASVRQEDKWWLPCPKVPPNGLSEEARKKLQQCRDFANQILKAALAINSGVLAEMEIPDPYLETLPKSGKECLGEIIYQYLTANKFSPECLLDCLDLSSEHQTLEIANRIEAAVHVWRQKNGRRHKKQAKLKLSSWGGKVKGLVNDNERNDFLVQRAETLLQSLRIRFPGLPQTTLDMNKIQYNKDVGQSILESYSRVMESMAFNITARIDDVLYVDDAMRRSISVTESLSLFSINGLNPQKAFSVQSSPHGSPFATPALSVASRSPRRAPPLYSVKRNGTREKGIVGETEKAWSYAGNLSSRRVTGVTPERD",
  "assay": "BiFC in Nicotiana benthamiana leaves, positive control",
  "procedure": "a, Co-immunoprecipitation experiments using transiently expressed M3Kδ6 and OST1/SnRK2.6 in Arabidopsis mesophyll cell protoplasts. OST1/SnRK2.6-GFP or GFP control co-expressed with M3Kδ6-FLAG were immunoprecipitated with GFP antibodies. Precipitated proteins were analyzed by immunoblots using GFP or FLAG antibody. b and c, BiFC analyses of nYFP-M3Kδ6 (b) or nYFP-M3Kδ7 (c) with OST1/SnRK2.6-cYFP, SnRK2.2-cYFP, 2.4-cYFP and 2.10-cYFP infiltrated in 6-week-old Nicotiana benthamiana leaves. nYFP-GEF1/cYFP-ABI1 combination was used as a positive control. All images are at the same scale. Scale bars=50 μm. d and e, BiFC quantifications measured from maximal projections of z-stacks and normalized over an infiltration control expressing p19 only. BiFC quantifications were analyzed by one-way ANOVA followed by Tukey's tests. Confocal images were acquired using identical settings for each BiFC experiment. Means±s.e.m. (n=45).",
  "data": [
    {"binder": "B1", "values": [
      {"measurement": "binding result", "value": "binds"}
    ]}
  ]
}
